Source: patent US20260028402A1 (SANYOU BIOPHARMACEUTICALS, published 2026)
Residue numbers refer to the chain shown, from its start.

B1: A9 (antibody, human IgG4 S228P, V domains shown)
VH: QVQLVESGGGLVQAGGSLRLSCAASGFSLDYYAIGWFRQAPGKEREEVSCISSSGGSTDYADSVKGRFTISRAYAKVYLQMNSLKPEDTAVYYCAAGVSGSVCPPLIGAYWGQGTQVTVSS
notes: also called antibody A9; antibody molecule A9
B2: Pepinemab (antibody, V domains shown)
VH: QVQLVQSGAEVKKPGSSVKVSCKASGYSFSDYYMHWVRQAPGQGLEWMGQINPTTGGASYNQKFKGKATITVDKSTSTAYMELSSLRSEDTAVYYCARYYYGRHFDVWGQGTTVTVSS
VL: DIVMTQSPDSLAVSLGERATINCKASQSVDYDGDSYMNWYQQKPGQPPKLLIYAASNLESGVPDRFSGSGSGTDFTLTISSLQAEDVAVYYCQQSNEDPYTFGQGTKLEIK
B3: A31 (antibody, human IgG4 S228P, V domains shown)
VH: EVQLVESGGGLVQPEGSLRLSCAASGFPLDYYAIGWFRQAPGKEREGVSCIISGGSTKYSASVKGRFTISRDSANNTVYLQMNSLKPEDTAVYFCAVSWSCDLFPRDTYGWDAWGQGTLVTVSS
notes: also called antibody A31; antibody molecule A31
B4: MusCD100-Fc (Fc fusion, mouse, UniProt O09126 24-733, looked up)
chain: FAPVPRLTWEHGEVGLVQFHKPGIFNYSALLMSEDKDTLYVGAREAVFAVNALNISEKQHEVYWKVSEDKKSKCAEKGKSKQTECLNYIRVLQPLSSTSLYVCGTNAFQPTCDHLNLTSFKFLGKSEDGKGRCPFDPAHSYTSVMVGGELYSGTSYNFLGSEPIISRNSSHSPLRTEYAIPWLNEPSFVFADVIQKSPDGPEGEDDKVYFFFTEVSVEYEFVFKLMIPRVARVCKGDQGGLRTLQKKWTSFLKARLICSKPDSGLVFNILQDVFVLRAPGLKEPVFYAVFTPQLNNVGLSAVCAYTLATVEAVFSRGKYMQSATVEQSHTKWVRYNGPVPTPRPGACIDSEARAANYTSSLNLPDKTLQFVKDHPLMDDSVTPIDNRPKLIKKDVNYTQIVVDRTQALDGTFYDVMFISTDRGALHKAVILTKEVHVIEETQLFRDSEPVLTLLLSSKKGRKFVYAGSNSGVVQAPLAFCEKHGSCEDCVLARDPYCAWSPAIKACVTLHQEEASSRGWIQDMSGDTSSCLDKSKESFNQHFFKHGGTAELKCFQKSNLARVVWKFQNGELKAASPKYGFVGRKHLLIFNLSDGDSGVYQCLSEERVRNKTVSQLLAKHVLEVKMVPRTPPSPTSEDAQTEGSKITSKMPVASTQGSSPPTPALWATSPRAATLPPKSSSGTSCEPKMVINTVPQLHSEKTVYLKSSDNR
modifications: biotinylated in the Plexin binding and blocking assays (sites not given)
notes: range 24-733; Expressed in HEK293 cells; also called MusCD100-Fc-Biotin; MusCD100-Fc antigen protein; not shown: human Fc tag added to the C-terminus
B5: A9-VHH2 (antibody, human IgG4 S228P, V domains shown)
VH: B1 VH with K85R, P86A, Q116L
B6: A9-VHH3 (antibody, human IgG4 S228P, V domains shown)
VH: B1 VH with E44G, R45L, K85R, P86A, Q116L
B7: A9-VHH1 (antibody, human IgG4 S228P, V domains shown)
VH: B1 VH with A14P, Q116L
B8: A31-VHH1 (antibody, human IgG4 S228P, V domains shown)
VH: B3 VH with N75K, K86R, P87A
notes: also called humanized antibody A31-VHH1
B9: A31-VHH (VHH)
VHH: B3 VH
notes: Tested as phage clone / VHH lysate in the screening; also called antibody A31-VHH

target: T1, full-length human CD100 protein HuCD100 on cells (human, UniProt Q92854 22-862); test: flow cytometry on HuPBMCs naturally expressing human CD100
T1 construct: whole, on cells; the cell is named under assay; also called HuCD100-HEK293; human CD100 on HuPBMC
Protocol: (§1) The specific procedures were as follows: HuPBMCs (AllCells, PB004F-C (Y1246)) and Jurkat cells (ATCC, TIB-152) in logarithmic growth phase were prepared as single-cell suspensions. The density was adjusted to 1×10⁶ cells/mL, and 100 μL of each suspension was added per well to 96-well plates. The plates were centrifuged at 4° C., 300 g and the supernatants were removed. […] After incubation, the cell mixture was washed three times, and then 100 μL of 1:300 diluted secondary antibody Goat F(ab′)₂ Anti-Human IgG-Fc (PE) (abcam, ab98596) was added, and the plates were incubated in the dark at 4° C. for 30 min. Following 3 additional washes, detection was performed using a flow cytometer (Beckman, CytoFLEX AOO-1-1102).

Binder | EC50 [nM]
B1 | 0.191
B2 | 0.223
B3 | 0.162

target: T1, full-length human CD100 protein HuCD100 …; test: flow cytometry on Jurkat cells naturally expressing human CD100
Protocol: as §1

Binder | EC50 [nM]
B1 | 0.346
B2 | 0.559
B3 | 0.302

target: T2, full-length mouse Plexin-B1 protein MusPlexin-B1 on cells (mouse, UniProt Q8CJH3 20-2119); test: flow cytometry on MusPlexin-B1-HEK293 cells with biotinylated antigen protein and streptavidin PE
T2 construct: whole, on cells; Overexpressed on HEK293 cells; also called MusPlexin-B1-HEK293
T2 sequence (Q8CJH3 20-2119): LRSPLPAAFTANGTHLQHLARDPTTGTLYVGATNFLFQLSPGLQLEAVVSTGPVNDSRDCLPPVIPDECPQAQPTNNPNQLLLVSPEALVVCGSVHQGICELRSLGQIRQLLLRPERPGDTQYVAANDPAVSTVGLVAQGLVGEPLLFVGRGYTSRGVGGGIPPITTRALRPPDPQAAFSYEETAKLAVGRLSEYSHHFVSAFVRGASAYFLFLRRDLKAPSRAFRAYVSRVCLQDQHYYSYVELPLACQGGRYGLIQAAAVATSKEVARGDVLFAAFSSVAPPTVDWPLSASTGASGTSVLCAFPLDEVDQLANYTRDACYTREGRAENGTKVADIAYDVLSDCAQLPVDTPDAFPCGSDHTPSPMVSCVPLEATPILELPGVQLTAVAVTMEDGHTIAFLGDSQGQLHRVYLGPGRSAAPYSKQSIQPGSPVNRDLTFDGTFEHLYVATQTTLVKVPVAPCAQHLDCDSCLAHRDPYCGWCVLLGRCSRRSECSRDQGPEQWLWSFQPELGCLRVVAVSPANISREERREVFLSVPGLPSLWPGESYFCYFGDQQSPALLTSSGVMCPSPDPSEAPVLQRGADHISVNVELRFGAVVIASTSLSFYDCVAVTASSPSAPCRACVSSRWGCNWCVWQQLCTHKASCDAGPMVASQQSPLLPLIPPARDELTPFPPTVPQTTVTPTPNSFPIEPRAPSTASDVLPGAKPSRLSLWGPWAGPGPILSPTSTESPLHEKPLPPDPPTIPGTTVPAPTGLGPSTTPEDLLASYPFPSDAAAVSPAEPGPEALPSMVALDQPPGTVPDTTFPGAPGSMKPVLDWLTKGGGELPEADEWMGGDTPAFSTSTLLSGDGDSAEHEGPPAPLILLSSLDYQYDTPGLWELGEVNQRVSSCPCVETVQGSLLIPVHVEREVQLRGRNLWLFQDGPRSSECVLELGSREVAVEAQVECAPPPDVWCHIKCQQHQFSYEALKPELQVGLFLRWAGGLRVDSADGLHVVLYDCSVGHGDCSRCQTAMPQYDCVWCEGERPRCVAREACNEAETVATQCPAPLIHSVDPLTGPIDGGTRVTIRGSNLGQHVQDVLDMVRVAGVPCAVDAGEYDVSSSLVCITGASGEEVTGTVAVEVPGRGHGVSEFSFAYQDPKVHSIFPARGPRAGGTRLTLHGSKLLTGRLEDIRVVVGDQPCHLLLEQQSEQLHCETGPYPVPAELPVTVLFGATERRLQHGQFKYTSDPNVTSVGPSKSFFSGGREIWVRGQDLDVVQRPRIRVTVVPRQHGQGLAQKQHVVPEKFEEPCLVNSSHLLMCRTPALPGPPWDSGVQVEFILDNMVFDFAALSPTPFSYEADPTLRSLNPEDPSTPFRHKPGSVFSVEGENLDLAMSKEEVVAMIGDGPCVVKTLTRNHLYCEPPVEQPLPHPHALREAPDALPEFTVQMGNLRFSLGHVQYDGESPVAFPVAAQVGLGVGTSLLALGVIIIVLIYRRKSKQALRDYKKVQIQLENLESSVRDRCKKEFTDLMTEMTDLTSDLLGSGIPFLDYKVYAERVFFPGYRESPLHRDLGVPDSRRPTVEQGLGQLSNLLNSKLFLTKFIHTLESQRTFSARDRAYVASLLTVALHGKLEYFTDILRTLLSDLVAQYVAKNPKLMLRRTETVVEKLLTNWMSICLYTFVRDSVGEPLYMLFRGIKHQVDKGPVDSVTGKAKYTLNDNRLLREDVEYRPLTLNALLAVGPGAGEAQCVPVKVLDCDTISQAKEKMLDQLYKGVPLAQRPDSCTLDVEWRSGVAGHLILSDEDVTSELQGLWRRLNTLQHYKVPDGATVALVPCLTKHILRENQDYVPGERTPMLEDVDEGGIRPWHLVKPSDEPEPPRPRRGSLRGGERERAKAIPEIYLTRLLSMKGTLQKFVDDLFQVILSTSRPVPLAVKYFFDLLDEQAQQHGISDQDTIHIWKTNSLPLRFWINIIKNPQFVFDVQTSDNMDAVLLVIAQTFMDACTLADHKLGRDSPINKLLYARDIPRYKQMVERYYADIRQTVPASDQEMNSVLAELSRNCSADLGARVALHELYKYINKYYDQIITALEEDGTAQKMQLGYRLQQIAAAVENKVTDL
Protocol: Flow cytometry identification of HuPlexin-B1-HEK293, MusPlexin-B1-HEK293, CynoPlexin-B1-HEK293, and HuPlexin-B2-HEK293 cells: cells of the above cell lines in the logarithmic growth phase were trypsinized and plated into 96-well plates. […] After washing, the prepared eBioscience Streptavidin PE (Invitrogen, 2265658, 1:300) was added and the plates were incubated at 4° C. for 30 min. Finally, detection was performed using a flow cytometer (Beckman, CytoFLEXAOO-1-1102).

Binder | binding result
B4 | binds

target: HuCD100-His (human, UniProt Q92854 22-734); test: cell-based or functional assay

Binder | MDSC proportion (%) at 2.821 nM antibody [%] | MDSC proportion (%) at 8.463 nM antibody [%] | MDSC proportion (%) at 25.389 nM antibody [%] | MDSC proportion (%) at 76.166 nM antibody [%] | MDSC proportion (%) at 228.498 nM antibody [%] | MDSC proportion (%) at 685.495 nM antibody [%]
B5 | 31.2 | 17.8 | 13.1 | 10.5 | 9.09 | 10.9
B6 | 30.9 | 21.3 | 11.8 | 7.66 | 8.85 | 15
B7 | 32.6 | 21.1 | 11 | 6.56 | 9.06 | 15.6
B1 | 34.2 | 23.2 | 10.2 | 5.12 | 7.08 | 11.1
B3 | 16.8 | 8.97 | 9.56 | 10.4 | 10.7 | 14.7
B8 | 16.4 | 9.21 | 7.71 | 7.84 | 13.7 | 10

target: T3, MusCD100-His (mouse, UniProt O09126 24-733); test: primary ELISA screening of monoclonal clones
T3 construct: range 24-733; Expressed in HEK293 cells; also called MusCD100-His antigen protein; not shown: His tag added to the C-terminus

Binder | binding result
B9 | binds

target: T3, MusCD100-His; test: ELISA, antigen coated on plate

Binder | binding result
B8 | binds

target: T4, full-length mouse CD100 protein MusCD100 on cells (mouse, UniProt O09126 24-861); test: flow cytometry on MusCD100-HEK293 cells
T4 construct: whole, on cells; Overexpressed on HEK293 cells; also called MusCD100-HEK293

Binder | binding result
B3 | binds
B8 | binds
